± gives the uncertainty stated by the source.
B1: SWI/SNF complex subunit SMARCC1, residues 620 to 663; numbered along this chain, Q92922 (parent)
chain: GREWTEQETLLLLEALEMYKDDWNKVSEHVGSRTQDECILHFLR

Variants of: B1
Experiment: abundance fitness (aPCA) (normalised: wild type 0, dead -1); higher = more abundant; growth selection in yeast, the domain comes from the species named
Details: Homo sapiens

Variant	abundance fitness
GREWTEQETLLLLEALEMYKDDWNKLSEHVGSRTQDECILHFLR	-0.513 ± 0.09
GREWTEQETLLLLEALEMYKDDWNKQSEHVGSRTQDECILHFLR	-0.533 ± 0.21
GREWTEQETLLLLEALEMYKDDWNKWSEHVGSRTQDECILHFLR	-0.494 ± 0.19
GREWTEQETLLLLEALEMYKDDWNKISEHVGSRTQDECILHFLR	-0.051 ± 0.19
GREWTEQETLLLLEALEMYKDDWNKPSEHVGSRTQDECILHFLR	-0.919 ± 0.22
GREWTEQETLLLLEALEMYKDDWNKDSEHVGSRTQDECILHFLR	-0.768 ± 0.21
GREWTEQETLLLLEALEMYKDDWNKHSEHVGSRTQDECILHFLR	-0.683 ± 0.2
GREWTEQETLLLLEALEMYKDDWNKASEHVGSRTQDECILHFLR	0.006 ± 0.083
GREWTEQETLLLLEALEMYKDDWNKYSEHVGSRTQDECILHFLR	-0.57 ± 0.26
GREWTEQETLLLLEALEMYKDDWNKESEHVGSRTQDECILHFLR	-0.406 ± 0.17
GREWTEQETLLLLEALEMYKDDWNKCSEHVGSRTQDECILHFLR	0.543 ± 0.29
GREWTEQETLLLLEALEMYKDDWNKGSEHVGSRTQDECILHFLR	-0.686 ± 0.21
GREWTEQETLLLLEALEMYKDDWNKTSEHVGSRTQDECILHFLR	0.029 ± 0.11
GREWTEQETLLLLEALEMYKDDWNKRSEHVGSRTQDECILHFLR	-0.424 ± 0.091
GREWTEQETLLLLEALEMYKDDWNKNSEHVGSRTQDECILHFLR	-0.533 ± 0.41
GREWTEQETLLLLEALEMYKDDWNKVSEHLGSRTQDECILHFLR	-0.131 ± 0.098
GREWTEQETLLLLEALEMYKDDWNKVSEHAGSRTQDECILHFLR	-0.97 ± 0.29
GREWTEQETLLLLEALEMYKDDWNKVSEHHGSRTQDECILHFLR	-1.1 ± 0.27
GREWTEQETLLLLEALEMYKDDWNKVSEHYGSRTQDECILHFLR	-1.05 ± 0.27
GREWTEQETLLLLEALEMYKDDWNKVSEHNGSRTQDECILHFLR	-0.79 ± 0.31

Variant	abundance fitness
GREWTEQETLLLLEALEMYKDDWNKVSEHCGSRTQDECILHFLR	-0.277 ± 0.13
GREWTEQETLLLLEALEMYKDDWNKVSEHRGSRTQDECILHFLR	-0.847 ± 0.16
GREWTEQETLLLLEALEMYKDDWNKVSEHPGSRTQDECILHFLR	-0.635 ± 0.12
GREWTEQETLLLLEALEMYKDDWNKVSEHQGSRTQDECILHFLR	-0.764 ± 0.13
GREWTEQETLLLLEALEMYKDDWNKVSEHTGSRTQDECILHFLR	-0.419 ± 0.12
GREWTEQETLLLLEALEMYKDDWNKVSEHSGSRTQDECILHFLR	-0.757 ± 0.17
GREWTEQETLLLLEALEMYKDDWNKVSEHGGSRTQDECILHFLR	-0.792 ± 0.14
GREWTEQETLLLLEALEMYKDDWNKVSEHMGSRTQDECILHFLR	-0.019 ± 0.15
GREWTEQETLLLLEALEMYKDDWNKVSEHEGSRTQDECILHFLR	-1.18 ± 0.32
GREWTEQETLLLLEALEMYKDDWNRVSEHVGSRTQDECILHFLR	0.072 ± 0.067
GREWTEQETLLLLEALEMYKDDWNQVSEHVGSRTQDECILHFLR	-0.122 ± 0.07
GREWTEQETLLLLEALEMYKDDWNTVSEHVGSRTQDECILHFLR	-0.129 ± 0.088
GREWTEQETLLLLEALEMYKDDWNSVSEHVGSRTQDECILHFLR	-0.011 ± 0.062
GREWTEQETLLLLEALEMYKDDWNYVSEHVGSRTQDECILHFLR	-0.473 ± 0.12
GREWTEQETLLLLEALEMYKDDWNWVSEHVGSRTQDECILHFLR	-0.562 ± 0.13
GREWTEQETLLLLEALEMYKDDWNKVQEHVGSRTQDECILHFLR	0.246 ± 0.1
GREWTEQETLLLLEALEMYKDDWNKVAEHVGSRTQDECILHFLR	0.168 ± 0.076
GREWTEQETLLLLEALEMYKDDWNKVKEHVGSRTQDECILHFLR	0.145 ± 0.071
GREWTEQETLLLLEALEMYKDDWNKVNEHVGSRTQDECILHFLR	-0.204 ± 0.092
GREWTEQETLLLLEALEMYKDDWNKVVEHVGSRTQDECILHFLR	0.039 ± 0.076

Variant	abundance fitness
GREWTEQETLLLLEALEMYKDDWNKVWEHVGSRTQDECILHFLR	-0.56 ± 0.15
GREWTEQETLLLLEALEMYKDDWNKVDEHVGSRTQDECILHFLR	-0.558 ± 0.14
GREWTEQETLLLLEALEMYKDDWNKVGEHVGSRTQDECILHFLR	0.056 ± 0.068
GREWTEQETLLLLEALEMYKDDWNKVEEHVGSRTQDECILHFLR	0.105 ± 0.072
GREWTEQETLLLLEALEMYKDDWNKVYEHVGSRTQDECILHFLR	-0.305 ± 0.13
GREWTEQETLLLLEALEMYKDDWNKVREHVGSRTQDECILHFLR	0.01 ± 0.068
GREWTEQETLLLLEALEMYKDDWNKVCEHVGSRTQDECILHFLR	-0.119 ± 0.1
GREWTEQETLLLLEALEMYKDDWNKVPEHVGSRTQDECILHFLR	-0.319 ± 0.081
GREWTEQETLLLLEALEMYKDDWNKVLEHVGSRTQDECILHFLR	-0.375 ± 0.13
GREWTEQETLLLLEALEMYKDDWNKVMEHVGSRTQDECILHFLR	-0.248 ± 0.11
GREWTEQETLLLLEALEMYKDDWNKVHEHVGSRTQDECILHFLR	0.063 ± 0.072
GREWTEQETLLLLEALEMYKDDWNKVIEHVGSRTQDECILHFLR	-0.149 ± 0.13
GREWTEQETLLLLEALEMYKDDWNKVFEHVGSRTQDECILHFLR	-0.516 ± 0.24
GREWTEQETLLLLEALEMYKDDWNKVSMHVGSRTQDECILHFLR	-0.8 ± 0.21
GREWTEQETLLLLEALEMYKDDWNKVSNHVGSRTQDECILHFLR	-0.21 ± 0.14
GREWTEQETLLLLEALEMYKDDWNKVSLHVGSRTQDECILHFLR	-0.31 ± 0.08
GREWTEQETLLLLEALEMYKDDWNKVSQHVGSRTQDECILHFLR	-0.181 ± 0.078
GREWTEQETLLLLEALEMYKDDWNKVSKHVGSRTQDECILHFLR	-0.269 ± 0.11
